Reference: patent CN116284426A

Tests used:
[1] = target: CD3εδ-ECD-his (CD3εδ异二聚体蛋白) (UniProt P07766); experiment: ELISA, CD3εδ-ECD-his coated at 1 ug/mL (Table 20)
[2] = target: CD3εδ-ECD-his (CD3εδ异二聚体蛋白) (UniProt P07766); experiment: ELISA, CD3εδ-ECD-his coated at 1 ug/mL, anti-human IgG Fab HRP (Table 15)

EC50 [1]: 0.118 nM
EC50 [2]: 0.13 nM
B1: SP34 (humanized anti-CD3 monoclonal antibody) (antibody, human IgG1, kappa, V domains shown)
VH: EVQLVESGGGLVQPGGSLRLSCAASGFTFNTYAMNWVRQAPGKGLEWVARIRSKYNNYATYYADSVKDRFTISRDDSKNTLYLQMNSLRAEDTAVYYCVRHGNFGNSYVSWFAYWGQGTLVTVSS
VL: QAVVTQEPSLTVSPGGTVTLTCRSSTGAVTTSNYANWVQQKPGQAPRGLIGGTNKRAPGVPARFSGSLLGGKAALTLSGAQPEDEAEYYCALWYSNLWVFGQGTKVEIKR
